Laboratory results as given in paper doi:10.1101/2025.06.13.659407 (2025).

Target: biotinylated preS1 peptide, residues 69–108 (hepatitis B virus (residues numbered …, C-terminal biotin))
Test: BLI

B1: sEGF4–6-hFc (soluble fusion protein comprising SCARF2's EGF4–6 domains, with an N-terminal HA tag an (Fc fusion)
chain: GSYPYDVPDYAGSSACYCSATSRCDPQTGACLCHAGWWGRSCNNQCACNSSPCEQQSGRCQCRERTFGARCDRYCQCFRGRCHPVDGTCACEPGYRGKYCR
With B1 the koff was 0.000289 s⁻¹.
